Data on 1 molecule can be found in article PMC3814354, “Interaction of bacterial fatty-acid-displaced regulators with DNA is interrupted by tyrosine phosphorylation in the helix-turn-helix domain”.

What all share (conditions): protein: recombinant; tags: N-terminal 6xHis (pQE-30); chain copies: 2; label: none (ethidium bromide stain); blunt
One data set deals with T1, FatR wild type (Bacillus subtilis, UniProt O08335 1-194).
T1 sequence: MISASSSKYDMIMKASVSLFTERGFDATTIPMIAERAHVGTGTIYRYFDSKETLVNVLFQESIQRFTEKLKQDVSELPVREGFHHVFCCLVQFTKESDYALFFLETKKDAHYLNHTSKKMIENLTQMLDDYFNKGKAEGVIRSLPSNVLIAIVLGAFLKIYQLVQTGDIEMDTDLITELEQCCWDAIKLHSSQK
Briefly: EMSA; 120-1920 pmol protein, 30 pmol DNA (protein:DNA 4:1 to 64:1); EMSA: 100 mM Tris-HCl pH 7.5, 15 min at 37 C, 8% native PAGE in Tris-glycine (2.5 mM Tris, 192 mM glycine), ethidium bromide stain. In general terms: A gel shift assay detects complexes by their altered migration in electrophoresis.

The target of another data set is T2, FatR Y45E (Bacillus subtilis, UniProt O08335 1-194, Y45E).
T2 sequence: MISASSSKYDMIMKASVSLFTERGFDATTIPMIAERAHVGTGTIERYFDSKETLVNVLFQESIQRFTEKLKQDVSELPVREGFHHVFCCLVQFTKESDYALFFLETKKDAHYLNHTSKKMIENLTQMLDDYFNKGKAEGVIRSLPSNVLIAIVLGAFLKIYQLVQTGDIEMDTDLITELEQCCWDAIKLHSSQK
Kind of data set: EMSA; 960 and 1920 pmol protein, 30 pmol DNA (up to 64:1); EMSA: 100 mM Tris-HCl pH 7.5, 15 min at 37 C, 8% native PAGE in Tris-glycine (2.5 mM Tris, 192 mM glycine), ethidium bromide stain.

A further data set deals with T3, FatR Y45F (Bacillus subtilis, UniProt O08335 1-194, Y45F).
T3 sequence: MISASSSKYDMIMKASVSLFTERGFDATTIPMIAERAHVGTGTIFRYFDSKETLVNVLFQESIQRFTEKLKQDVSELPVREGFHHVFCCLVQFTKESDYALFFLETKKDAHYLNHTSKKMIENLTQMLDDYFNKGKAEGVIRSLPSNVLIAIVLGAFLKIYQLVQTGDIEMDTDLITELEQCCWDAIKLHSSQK
Described as above.

B1: fatR operator (BsOP1/BsOP2) (dsDNA)
DNA 1: TACGGAATGAATATTCATTCCTTT
DNA 2: AAAGGAATGAATATTCATTCCGTA
Consider B1, for which the binding result with FatR wild type was “binds”; with FatR Y45E, “no binding”; with FatR Y45F, “no binding”.
